Laboratory results as given in article PMC3919625.

Target: 2G12 IgG monomer (human)
Assay: SEC

## 2G12 IgG monomer (antibody)
  stoichiometry N: 3
